T1: human EphB3 (Homo sapiens, UniProt P54753)
T1 construct: a protein of the extracellular region of each human Eph receptor fused with the SEAP protein and the His tag; made in house; host or cells: Expi293F cells
T1 sequence (P54753 34-559 limits assumed): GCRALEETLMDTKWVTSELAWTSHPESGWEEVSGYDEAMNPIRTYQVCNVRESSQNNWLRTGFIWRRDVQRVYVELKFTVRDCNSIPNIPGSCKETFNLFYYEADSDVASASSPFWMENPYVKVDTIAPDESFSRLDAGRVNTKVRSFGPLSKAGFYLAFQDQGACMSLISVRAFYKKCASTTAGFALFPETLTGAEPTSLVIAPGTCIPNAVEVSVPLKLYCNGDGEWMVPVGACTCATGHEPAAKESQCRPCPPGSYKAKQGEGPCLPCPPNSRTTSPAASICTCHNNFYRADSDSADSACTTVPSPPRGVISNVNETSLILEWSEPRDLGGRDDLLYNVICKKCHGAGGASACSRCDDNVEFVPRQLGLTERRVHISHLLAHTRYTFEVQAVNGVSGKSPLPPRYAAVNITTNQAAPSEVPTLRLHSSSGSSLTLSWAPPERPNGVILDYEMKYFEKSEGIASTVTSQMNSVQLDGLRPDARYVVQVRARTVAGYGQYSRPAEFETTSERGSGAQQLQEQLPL

T2: human EphA3 (Homo sapiens, UniProt P29320)
T2 construct: a protein of the extracellular region of each human Eph receptor fused with the SEAP protein and the His tag; made in house; host or cells: Expi293F cells (culture supernatant)
T2 sequence (P29320 21-541 limits assumed): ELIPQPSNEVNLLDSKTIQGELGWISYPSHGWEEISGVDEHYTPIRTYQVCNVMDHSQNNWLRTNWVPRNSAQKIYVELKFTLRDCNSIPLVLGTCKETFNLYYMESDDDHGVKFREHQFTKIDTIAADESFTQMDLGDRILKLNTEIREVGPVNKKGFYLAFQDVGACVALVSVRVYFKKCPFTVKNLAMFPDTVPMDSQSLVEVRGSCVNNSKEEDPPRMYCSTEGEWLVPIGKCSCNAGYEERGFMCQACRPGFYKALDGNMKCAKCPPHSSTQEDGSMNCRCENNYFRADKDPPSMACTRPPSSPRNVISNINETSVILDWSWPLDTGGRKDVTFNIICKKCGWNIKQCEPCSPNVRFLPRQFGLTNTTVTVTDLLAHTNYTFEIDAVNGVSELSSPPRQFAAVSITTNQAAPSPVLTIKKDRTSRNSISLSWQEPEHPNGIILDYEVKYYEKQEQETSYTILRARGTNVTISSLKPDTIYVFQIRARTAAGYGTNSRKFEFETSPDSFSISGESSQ

T3: human EphB2 (Homo sapiens, UniProt P29323)
T3 construct: a protein of the extracellular region of each human Eph receptor fused with the SEAP protein and the His tag; made in house; host or cells: Expi293F cells
T3 sequence (P29323 19-543 limits assumed): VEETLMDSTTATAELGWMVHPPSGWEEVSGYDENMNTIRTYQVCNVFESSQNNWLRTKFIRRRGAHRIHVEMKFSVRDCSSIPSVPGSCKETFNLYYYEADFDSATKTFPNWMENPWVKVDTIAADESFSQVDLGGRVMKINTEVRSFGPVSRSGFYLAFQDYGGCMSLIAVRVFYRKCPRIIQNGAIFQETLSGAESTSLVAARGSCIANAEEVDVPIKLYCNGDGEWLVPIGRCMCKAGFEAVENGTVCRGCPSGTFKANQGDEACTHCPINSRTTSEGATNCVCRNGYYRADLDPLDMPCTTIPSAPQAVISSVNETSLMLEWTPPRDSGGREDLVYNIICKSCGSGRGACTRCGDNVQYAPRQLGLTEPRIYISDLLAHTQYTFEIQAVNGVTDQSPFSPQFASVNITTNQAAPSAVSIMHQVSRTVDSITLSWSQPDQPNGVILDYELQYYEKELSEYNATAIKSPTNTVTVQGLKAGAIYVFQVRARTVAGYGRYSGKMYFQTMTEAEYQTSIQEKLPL


How the values were obtained:
Test in all cases: Selectivity ELISA of humanized antibodies for human Eph receptor
Type in all cases: binding
Conditions in all cases: coated protein 1 nM
human EphB3 = molecular target: T1, human EphB3
How it was run: (§1)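 Capture ELISA: anti-6-His coat, 1% BlockAce block, Eph ECD-SEAP-His (1 nM final, Expi293F supernatant) 1 h RT, humanized Ab 1 h RT, HRP anti-IgG 1 h RT, TMB, H2SO4 stop, A450.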

human EphA3 = molecular target: T2, human EphA3
How it was run: as §1

human EphB2 = molecular target: T3, human EphB2
How it was run: as §1

SEAP-His = SEAP-His (Homo sapiens, UniProt P05187)
Sequence of SEAP-His (P05187 23-511 limits assumed): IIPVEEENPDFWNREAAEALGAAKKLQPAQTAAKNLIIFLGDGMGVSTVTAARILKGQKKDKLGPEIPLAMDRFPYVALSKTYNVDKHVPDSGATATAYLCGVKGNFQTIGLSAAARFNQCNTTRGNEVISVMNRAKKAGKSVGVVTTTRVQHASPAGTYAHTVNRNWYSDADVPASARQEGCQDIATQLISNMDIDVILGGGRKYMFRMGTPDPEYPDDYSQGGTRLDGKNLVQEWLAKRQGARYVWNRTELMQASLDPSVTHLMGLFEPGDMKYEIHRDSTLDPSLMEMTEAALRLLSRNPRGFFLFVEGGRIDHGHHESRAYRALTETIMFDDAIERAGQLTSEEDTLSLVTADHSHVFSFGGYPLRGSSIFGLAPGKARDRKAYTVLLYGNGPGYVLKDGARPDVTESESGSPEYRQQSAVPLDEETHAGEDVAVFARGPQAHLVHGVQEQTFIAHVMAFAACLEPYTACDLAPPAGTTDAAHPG
How it was run: as §1

Row | hEphB3-SEAP-: absorbance at 450 nm, percentage with respect to hEphA4-SEAP-His as 100% (human EphB3) [%] | hEphA3-SEAP-: absorbance at 450 nm, percentage with respect to hEphA4-SEAP-His as 100% (human EphA3) [%] | hEphB2-SEAP-: absorbance at 450 nm, percentage with respect to hEphA4-SEAP-His as 100% (human EphB2) [%] | SEAP-His: absorbance at 450 nm, percentage with respect to hEphA4-SEAP-His as 100% (SEAP-His) [%] | Molecule
1 | 5.9 | 5.4 | 5.5 | 6.1 | 69 (antibody, V domains shown, synthetic humanized antibody heavy chain variable region sequence; synthetic humanized antibody light chain variable region sequence) VH: QIQLVQSGSELKKPGASVKVSCKASGYTFTDYSMHWVRQAPGQGLKWMGWINTETGEPTYADDFKGRFVFSLDTSVSTAYLQISSLKAEDTAVYYCARIPLYYYGSRYWYFDVWGQGTTVTVSS VL: DIQMTQSPSSLSASVGDRVTITCRASENIYRNLAWYQQKPGKAPKLLVYAATNLADGVPSRFSGSGSGTDYTLTISSLQPEDFATYYCQHFWGTPWTFGQGTKVEIK
2 | 5.9 | 5.8 | 5.7 | 6.1 | 86 (antibody, V domains shown, constant regions without entry; synthetic humanized antibody light chain variable region sequence; synthetic humanized antibody heavy chain variable region sequence) VL: DIQMTQSPSSLSASVGDRVTITCRASENIYRNLAWYQQKPGKAPKLLLYAATNLADGVPSRFSGSGSGTDYTLTISSLQSEDFATYYCQHFWGTPWTFGQGTKVEIK VH: QIQLVQSGSELKKPGASVKVSCKASGYTFTDYSMHWVRQAPGQGLKWMGWINTETGEPTYADDFKGRFVFSLDTSVSTAYLQISSLKAEDTAVYYCARIPLYYYGSRYWYFDVWGQGTTVTVSS
3 | 5.7 | 5.7 | 5.6 | 6.5 | 83 (antibody, V domains shown, constant regions without entry; synthetic humanized antibody light chain variable region sequence; synthetic humanized antibody heavy chain variable region sequence) VL: DIQMTQSPSSLSASVGDRVTITCRASENIYRNLAWYQQKPGKAPKLLLYAATNLADGVPSRFSGSGSGTDYTLTISSLQSEDFATYYCQHFWGTPWTFGQGTKVEIK VH: QIQLVQSGSELKKPGASVKVSCKASGYTFTDYSMHWVRQAPGQGLKWMGWINTETGEPTYAQGFTGRFVFSLDTSVSTAYLQISSLKAEDTAVYYCARIPLYYYGSRYWYFDVWGQGTTVTVSS
4 | 4.8 | 4.9 | 4.9 | 5.1 | 84 (antibody, V domains shown, constant regions without entry; synthetic humanized antibody light chain variable region sequence; synthetic humanized antibody heavy chain variable region sequence) VL: DIQMTQSPSSLSASVGDRVTITCRASENIYRNLAWYQQKPGKAPKLLLYAATNLADGVPSRFSGSGSGTDYTLTISSLQSEDFATYYCQHFWGTPWTFGQGTKVEIK VH: QVQLVQSGSELKKPGASVKVSCKASGYTFTDYSMHWVRQAPGQGLEWMGWINTETGEPTYADDFKGRFVFSLDTSVSTAYLQISSLKAEDTAVYYCARIPLYYYGSRYWYFDVWGQGTTVTVSS
5 | 5.2 | 5.1 | 5.1 | 5.3 | 85 (antibody, V domains shown, constant regions without entry; synthetic humanized antibody light chain variable region sequence; synthetic humanized antibody heavy chain variable region sequence) VL: DIQMTQSPSSLSASVGDRVTITCRASENIYRNLAWYQQKPGKAPKLLLYAATNLADGVPSRFSGSGSGTDYTLTISSLQSEDFATYYCQHFWGTPWTFGQGTKVEIK VH: QVQLVQSGSELKKPGASVKVSCKASGYTFTDYSMHWVRQAPGQGLKWMGWINTETGEPTYADDFKGRFVFSLDTSVSTAYLQISSLKAEDTAVYYCARIPLYYYGSRYWYFDVWGQGTTVTVSS
6 | 5.6 | 5.4 | 5.6 | 5.9 | 82 (antibody, V domains shown, constant regions without entry; synthetic humanized antibody light chain variable region sequence; synthetic humanized antibody heavy chain variable region sequence) VL: DIQMTQSPSSLSASVGDRVTITCRASENIYRNLAWYQQKPGKAPKLLLYAATNLADGVPSRFSGSGSGTDYTLTISSLQSEDFATYYCQHFWGTPWTFGQGTKVEIK VH: QVQLVQSGSELKKPGASVKVSCKASGYTFTDYSMHWVRQAPGQGLKWMGWINTETGEPTYAQGFTGRFVFSLDTSVSTAYLQISSLKAEDTAVYYCARIPLYYYGSRYWYFDVWGQGTTVTVSS
7 | 4.9 | 5.0 | 5.0 | 5.0 | 81 (antibody, V domains shown, constant regions without entry; synthetic humanized antibody light chain variable region sequence; synthetic humanized antibody heavy chain variable region sequence) VL: DIQMTQSPSSLSASVGDRVTITCRASENIYRNLAWYQQKPGKAPKLLLYAATNLADGVPSRFSGSGSGTDYTLTISSLQSEDFATYYCQHFWGTPWTFGQGTKVEIK VH: QVQLVQSGSELKKPGASVKVSCKASGYTFTDYSMHWVRQAPGQGLEWMGWINTETGEPTYAQGFTGRFVFSLDTSVSTAYLQISSLKAEDTAVYYCARIPLYYYGSRYWYFDVWGQGTTVTVSS
